Literature values in paper PMC5150220.

Molecular target: sigma32 peptide 132-144 (Escherichia coli) (UniProt P0AGB3)

Chain of DnaK (P0A6Y8 2-638): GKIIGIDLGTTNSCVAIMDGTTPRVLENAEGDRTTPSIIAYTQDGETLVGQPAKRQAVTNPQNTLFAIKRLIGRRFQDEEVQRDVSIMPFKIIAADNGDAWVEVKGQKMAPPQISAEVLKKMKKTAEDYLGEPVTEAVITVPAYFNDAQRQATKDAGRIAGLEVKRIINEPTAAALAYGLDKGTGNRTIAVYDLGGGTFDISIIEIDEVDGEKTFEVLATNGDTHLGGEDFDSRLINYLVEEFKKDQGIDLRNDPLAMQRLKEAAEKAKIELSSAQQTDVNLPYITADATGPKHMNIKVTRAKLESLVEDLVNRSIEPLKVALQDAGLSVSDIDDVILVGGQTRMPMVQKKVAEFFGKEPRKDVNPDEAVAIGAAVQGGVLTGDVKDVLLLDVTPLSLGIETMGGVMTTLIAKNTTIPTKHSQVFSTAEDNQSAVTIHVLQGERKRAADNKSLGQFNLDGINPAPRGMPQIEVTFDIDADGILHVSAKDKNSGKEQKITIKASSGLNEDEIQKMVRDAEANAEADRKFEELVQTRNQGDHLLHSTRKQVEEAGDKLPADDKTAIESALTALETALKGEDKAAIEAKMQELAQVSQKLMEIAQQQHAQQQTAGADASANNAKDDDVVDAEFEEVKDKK

**Q.** Which Kd does the source give for DnaK (from UniProt P0A6Y8) here?
**A.** 78 nM
